This data set deals with RNA polymerase II;RECQL5 1-620 D157A (human;human, UniProt P24928;P30876;P19387;O15514;P19388;P61218;P62487;P52434;P36954;P62875;P52435;P53 …, |D157A). Description: cryo-EM.
Sequence of RNA polymerase II;RECQL5 1-620 D157A (O94762 1-620 D157A, one chain of several): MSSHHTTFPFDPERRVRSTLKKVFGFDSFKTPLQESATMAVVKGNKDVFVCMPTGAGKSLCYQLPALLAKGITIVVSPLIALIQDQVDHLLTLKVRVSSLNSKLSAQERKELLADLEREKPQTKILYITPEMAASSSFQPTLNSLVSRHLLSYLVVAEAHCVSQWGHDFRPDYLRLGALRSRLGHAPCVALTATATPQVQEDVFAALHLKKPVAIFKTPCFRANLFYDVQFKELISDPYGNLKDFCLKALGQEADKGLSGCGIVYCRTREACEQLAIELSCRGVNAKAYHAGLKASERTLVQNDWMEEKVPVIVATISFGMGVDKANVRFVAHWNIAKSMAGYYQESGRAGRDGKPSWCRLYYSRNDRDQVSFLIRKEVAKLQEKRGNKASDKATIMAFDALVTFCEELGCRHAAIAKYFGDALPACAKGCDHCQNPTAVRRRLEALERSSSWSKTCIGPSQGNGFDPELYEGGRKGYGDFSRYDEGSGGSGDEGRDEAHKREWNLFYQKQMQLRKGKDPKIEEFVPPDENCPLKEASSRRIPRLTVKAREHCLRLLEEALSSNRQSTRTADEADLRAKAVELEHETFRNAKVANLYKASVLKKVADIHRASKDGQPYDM

B1: artificial transcription bubble (template DNA, nontemplate DNA, RNA) (mixed)
DNA 1: CTCAAGTACTTACGCCTGGTCATTACTA
DNA 2: TAGTAAACTAGTATTGAAAGTACTTGAGCTTAGACAGCATGTC
RNA: UAUAUGCAUAAAGACCAGGC
Consider B1, for which the binding result is “binds”.
